From US20110039779A1 (published 2011)
“And” between values parts separate entries of the source, which are not always exact repeats. Equal values may be shown once. Where no end group is shown, it is not given here. [ ]: non-standard residue; d: D form. The star is where a group is joined. Biotin = O=C1N[C@H]2[C@H](CS[C@H]2CCCCC(=O)*)N1; AEEA = NCCOCCOCC(=O)O

Molecular target: IGF-1R on L6 cells
Assay: cell-based or functional assay

Row | Binder | IC50, down regulation of 3 nM IGF-1 stimulation to basal level, IGF-IR, L6 cells | IC50, down regulation of 3 nM IGF-1 stimulation to basal level, IRS-1, L6 cells | IC50, down regulation of 3 nM IGF-1 stimulation to basal level, MAPK42, L6 cells | IC50, down regulation of 3 nM IGF-1 stimulation to basal level, MAPK44, L6 cells
1 | SFYSCLESLVKRPTERSRGQWVGCR [F320] | 2 µM and > 1 µM | > 2 µM | 1 µM | 1 µM

Molecular target: T1, human insulin-like growth factor-1 receptor (HIGF-1R) (human, UniProt P08069 31-1367)
T1 construct: Detergent-solubilised receptor purified on WGA-agarose; also called HIGFIR
Assay: 125I-IGF-1 displacement, SPA-assay
Description: In certain cases, a scintillation proximity assay (SPA assay) was used to determine IGF-1R affinity.

T1 sequence (P08069 31-1367 limits assumed): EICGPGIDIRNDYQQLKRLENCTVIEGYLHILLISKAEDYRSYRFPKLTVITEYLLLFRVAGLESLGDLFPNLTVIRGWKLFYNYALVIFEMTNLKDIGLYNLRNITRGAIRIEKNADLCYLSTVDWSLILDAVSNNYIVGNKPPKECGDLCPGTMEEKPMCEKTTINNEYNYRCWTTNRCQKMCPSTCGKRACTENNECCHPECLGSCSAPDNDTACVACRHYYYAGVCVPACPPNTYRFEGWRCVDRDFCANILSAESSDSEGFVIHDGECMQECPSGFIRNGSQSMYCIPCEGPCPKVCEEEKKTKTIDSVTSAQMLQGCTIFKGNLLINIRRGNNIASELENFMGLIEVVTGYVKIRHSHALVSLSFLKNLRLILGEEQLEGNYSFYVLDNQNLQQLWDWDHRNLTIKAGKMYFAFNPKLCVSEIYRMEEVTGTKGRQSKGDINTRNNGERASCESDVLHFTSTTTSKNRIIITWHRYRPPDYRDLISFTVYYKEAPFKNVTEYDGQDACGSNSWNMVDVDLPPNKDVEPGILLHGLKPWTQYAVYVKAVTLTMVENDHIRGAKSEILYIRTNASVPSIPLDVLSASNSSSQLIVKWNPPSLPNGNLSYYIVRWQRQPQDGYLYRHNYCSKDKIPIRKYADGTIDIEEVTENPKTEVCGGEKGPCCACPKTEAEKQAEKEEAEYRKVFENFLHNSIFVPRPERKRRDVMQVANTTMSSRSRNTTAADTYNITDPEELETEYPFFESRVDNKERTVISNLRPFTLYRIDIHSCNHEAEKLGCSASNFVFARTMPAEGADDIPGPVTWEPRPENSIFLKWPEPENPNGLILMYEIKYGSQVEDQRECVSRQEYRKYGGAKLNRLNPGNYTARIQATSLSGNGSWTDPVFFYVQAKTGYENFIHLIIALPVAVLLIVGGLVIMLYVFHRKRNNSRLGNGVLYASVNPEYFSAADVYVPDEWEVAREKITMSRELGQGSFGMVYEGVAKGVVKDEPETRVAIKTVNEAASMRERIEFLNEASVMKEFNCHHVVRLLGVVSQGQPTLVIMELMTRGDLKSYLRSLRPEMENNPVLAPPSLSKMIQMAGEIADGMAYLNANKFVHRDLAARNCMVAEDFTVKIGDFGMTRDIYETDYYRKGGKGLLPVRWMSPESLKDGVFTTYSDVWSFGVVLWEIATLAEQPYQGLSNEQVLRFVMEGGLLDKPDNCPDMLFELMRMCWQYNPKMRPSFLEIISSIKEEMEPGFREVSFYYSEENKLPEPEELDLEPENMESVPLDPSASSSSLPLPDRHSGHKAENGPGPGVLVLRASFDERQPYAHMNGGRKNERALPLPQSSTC

Row | Binder | Kd
2 | XEESFYSCLESLVNGGAERSDGQWEGCREE (N-terminal Lig (lysine with a 2-aminohydroxyacetyl group on the epsilon amino group)) [F194] | 55 µM
3 | {Biotin-AEEA}-SFYSCLESLVQGPAEKSRGQWEGCRK (cysteine pairing not given here) [F414] | 65 µM
4 | SFYSCLESLVNGPAEKFRGRRDGCR [F380] | 46 µM
5 | Ac-SFYSCLESLVQGPAEKSRGQWEGCRK (cysteine pairing not given here, Second row labelled F365) [F365 (row r332, SEQ ID NO 200)] | 0.26 µM
6 | SQDQVGASLGSAISGRGGLSNFYSCLTSLATDTTRPSRRPWERCR [F397] | 28 µM
7 | VQDDCRGRPCGDADSFYEWFDQQAS [F263, listing 1 of 2 here] | 2.5 µM
8 | QFYGCLLDLSLGVPSFGWRRRCITA (N-terminal Pox (8-amino-3,6-dioxaoctanoic acid)) [F406] | 14 µM
9 | ESYGDCRDRPCGDAPNFYDWFVQQASE [F270] | 7 µM
10 | RQFYGCLLDLSLGVPSFGWRRRCITAR [F407] | 69 µM
11 | Ac-SFYSCLESLVTGPKERSRGQWEGCRR (cysteine pairing not given here) [F306] | 0.1 µM
12 | F254 (cysteine pairing not given here, 111 conjugated by POX) peptide: ESFYSCLESLVAGPAEKSRGQWEGCR[AEEA][AEEA]GYSWLRDVLMEKQAQLKREGSVGRQE | 82 µM
13 | GVGGWRYGSFPSFSSQTRS [F431] | 0.0017 µM
14 | VQDDCRGRPCGDADSFYEWFDQGYGSSSRRAPQT [F404] | 62 µM
15 | EGRVDDAFYEWFERQLGEELCQSWGVRIGWLAGLCPE [F410] | 37 µM

Molecular target: T2, IGF-1R on SW480 cells (UniProt P08069 31-1367, limits assumed)
Assay: cell-based or functional assay

T2 sequence (P08069 31-1367 limits assumed): as the sequence (P08069 31-1367 limits assumed) above

Row | Binder | IC50, IGF-1 (10 nM)-induced proliferation of SW480 cells, exp. 13717-019 | IC50, IGF-1 (10 nM)-induced proliferation of SW480 cells, exp. 13717-027 | IC50, IGF-1 (10 nM)-induced proliferation of SW480 cells, exp. 13262-015 | IC50, IGF-1 (10 nM)-induced proliferation of SW480 cells, exp. 13262-014 | IC50, IGF-1 (10 nM)-induced proliferation of SW480 cells, exp. 13262-025 | IC50, IGF-1 (10 nM)-induced proliferation of SW480 cells, exp. 13262-027
16 | DFYGCLLDLSLGVPSLGWRRRCIT [F428] | 1 µM | 1 µM |  |  |  | 
17 | VQDDCRGRPCGDADSFYEWFDQQAGYGSSSRRAPQT [F364] |  |  | > 10 µM |  |  | 
18 | IFYSCLASLLHGGPQRNTGPWERCRR [F141] |  |  | > 10 µM |  |  | 
19 | SFYSCLESLVKRPTERSRGQWVGCR [F320] |  |  |  | > 10 µM |  | 
20 | QFYGCLLDLSLGVPSFGWKKKCITA [F392] |  |  |  |  | > 10 µM | 1 µM
21 | SFYSCLESLVSGPAEKSHRRWEACR [F321] |  |  |  | > 10 µM |  | 
22 | ESFYSCLASLVTGIPRSNSGTQVFCREE [F227] |  |  | > 10 µM |  |  | 

Molecular target: T2, IGF-1R on SW480 cells
Assay: cell-based or functional assay
Remark: another data set of the same source

Row | Binder | IC50 in SW480 (M) in presence of IGF-1 | IC50 in SW480 (M), peptide alone
23 | ELQGFCELLATVTGVTGLGCLDYQPIE [F202] | > 1e-05 M | 
24 | RQWDCRGRPCGDAESFYEWFDQQRS [F264] | > 1e-05 M | > 1e-05 M
25 | SFYSCLESLVNGPAEKSRGQWDGCR [F249] | > 1e-05 M | > 1e-05 M
26 | VQDDCRGRPCGDADSFYEWFDQQAS [F263, listing 2 of 2 here] | > 1e-06 M | > 1e-06 M

Molecular target: T1, human insulin-like growth factor-1 …
Assay: 125I-IGF-1 displacement, PEG-assay
Procedure: IGF-1R affinity studies were generally performed as follows. […] The day before harvest cells were moved to serum free conditions and before harvest the cells were rinsed with and ice cold PBS solution. The cells were solubilized in cold lysis buffer (4 ml lysis buffer/1×10⁸ cells); vortexed vigorously to lysis in lysis buffer (50 mM Hepes (pH 8.0); 150 mM NaCl; 1% Triton X-100; 2 mM EDTA; 10 μg/mlaprotinin; 0.5 mM PEFABLOC (Roche)); and the lysate centrifuged at 4° C., 20000 rpm, for 15 minutes. […] In some cases, human insulin receptor (HIR) affinity for select test peptides was similarly measured.

Row | Binder | Kd
27 | EEGVDEVRAWLWCQISGLGCESEEX (C-terminal Lig (lysine with a 2-aminohydroxyacetyl group on the epsilon amino group)) [F191] | 54 µM
28 | ETFYKCLASVLTGSTQTKRRPWEGCREE [F229] | 37 µM
29 | EWLEQERAWIWCEIQGSGCRAE [F216] | 10 µM
30 | GVRAMSFYDALVSVLGLGPSG [F157] | 2 µM
31 | DDDKGSLDESFYDWFERQLGTFYSCLASLLTGTPQPNRGPWERCR [F110] | 1 µM
32 | TFYSCLASLLTGPREQNRGAWERCRR [F142] | 0.04 µM
33 | EDHRLCGTDEYLMQDLFVRGLCRLIWE [F164] | 4 µM
34 | FFYRCLSRLLGGQLGSRLGLSCIGD [F139] | 8 µM
35 | KLHNLMFYYGLQRLVWGAGLG [F159] | 5 µM
36 | ELSFACLLSQLSGVVLPDCLLGEDE [F201] | 43 µM
37 | XGSLDESFYDWFERQLGKK (N-terminal Lig (lysine with a 2-aminohydroxyacetyl group on the epsilon amino group)) [F119] | 1 µM
38 | SFYSCLESLVNGPAEKSRGQWDGCRK [F250] | 42 µM
39 | VEGRGLFYDLLRQLLARRQNG [F158] | 0.9 µM
40 | ESFYSCLASLVAGTPWPKGGSWERCREE [F230] | 20 µM
41 | ESFYSCLESLVNGPAEKSRGQWDGCRE [F215] | 82 µM
42 | EGRVDDAFYEWFERQLGE [F213] | 0.8 µM
